In PMC8917853, “Synthesis and evaluation of ^99mTc-DOTA-ARA-290 as potential SPECT tracer for targeting cardiac ischemic region” (Iranian Journal of Basic Medical Sciences, 2021):
Residues, ends and D or L forms follow the SMILES beside them. *: point of attachment. DOTA = O=C(O)CN1CCN(CC(=O)O)CCN(CC(=O)*)CCN(CC(=O)O)CC1; X1 = CN(C)c1ccc(/N=N/c2ccc(C(=O)*)cc2)cc1

Assays:
[1] = sodium chloride 0.9%, ambient temperature, up to 6 hr, TLC, specific activity 18.5 MBq/nmol, mean n=3
Experimental: (§1) As an in vitro stability evaluation, radiolabeled peptides (specific activity= 18.5 MBq/nmol) were added to sodium chloride 0.9 % isotonic solution ([24]). After incubation at ambient temperature, samples were taken out at 0.06, 0.5, 1, 2, 4, and 6 hr. The radiochemical purity of the mixture was investigated by a TLC stripe. To survey biostability, 100 μl of the labeled compound was added to fresh human serum (1 ml) and incubated (37 °C, 5% CO2) at different time points (4, 30, 60, 120, 240, and 360 min). 100 μl aliquots of serum samples were then incubated with 100 μl of ethanol. Samples were centrifuged at 5000 rpm for 5 min at 37 °C and 20 µl supernatant was removed to assess the degradation of ^99mTc labeled peptide by TLC.

[2] = in vitro; conditions: human, fresh human serum
Experimental: as §1

[3] = molecular target: T1, EPOR-BcR receptor on H9c2 myocardial cells (Rattus norvegicus, UniProt Q07303+Q78ZF5); assay: In vitro hypoxia test: binding to hypoxic vs normoxic H9c2 myocardial cells; format: cell-based; conditions: for binding to hypoxic cells relative to normoxic cells: H9c2 cells, 250 pmol radiopeptide, 37 °C, triplicate
T1 construct: endogenous in cells; host or cells: H9c2 myocardial cells (hypoxic vs normoxic culture)
T1 sequence (Q07303 25-507): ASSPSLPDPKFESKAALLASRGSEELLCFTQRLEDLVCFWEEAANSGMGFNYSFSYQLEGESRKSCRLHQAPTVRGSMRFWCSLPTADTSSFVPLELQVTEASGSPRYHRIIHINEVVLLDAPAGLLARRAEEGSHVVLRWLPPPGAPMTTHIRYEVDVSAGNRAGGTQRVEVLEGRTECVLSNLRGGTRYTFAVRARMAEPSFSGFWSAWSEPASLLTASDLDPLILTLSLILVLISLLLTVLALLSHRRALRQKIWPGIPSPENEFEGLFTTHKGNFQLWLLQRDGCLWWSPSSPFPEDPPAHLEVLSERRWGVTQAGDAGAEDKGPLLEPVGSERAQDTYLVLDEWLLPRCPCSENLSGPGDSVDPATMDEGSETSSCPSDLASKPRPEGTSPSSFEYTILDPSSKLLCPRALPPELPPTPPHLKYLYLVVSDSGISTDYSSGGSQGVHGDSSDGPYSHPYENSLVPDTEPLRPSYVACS
T1 sequence (Q78ZF5 29-896): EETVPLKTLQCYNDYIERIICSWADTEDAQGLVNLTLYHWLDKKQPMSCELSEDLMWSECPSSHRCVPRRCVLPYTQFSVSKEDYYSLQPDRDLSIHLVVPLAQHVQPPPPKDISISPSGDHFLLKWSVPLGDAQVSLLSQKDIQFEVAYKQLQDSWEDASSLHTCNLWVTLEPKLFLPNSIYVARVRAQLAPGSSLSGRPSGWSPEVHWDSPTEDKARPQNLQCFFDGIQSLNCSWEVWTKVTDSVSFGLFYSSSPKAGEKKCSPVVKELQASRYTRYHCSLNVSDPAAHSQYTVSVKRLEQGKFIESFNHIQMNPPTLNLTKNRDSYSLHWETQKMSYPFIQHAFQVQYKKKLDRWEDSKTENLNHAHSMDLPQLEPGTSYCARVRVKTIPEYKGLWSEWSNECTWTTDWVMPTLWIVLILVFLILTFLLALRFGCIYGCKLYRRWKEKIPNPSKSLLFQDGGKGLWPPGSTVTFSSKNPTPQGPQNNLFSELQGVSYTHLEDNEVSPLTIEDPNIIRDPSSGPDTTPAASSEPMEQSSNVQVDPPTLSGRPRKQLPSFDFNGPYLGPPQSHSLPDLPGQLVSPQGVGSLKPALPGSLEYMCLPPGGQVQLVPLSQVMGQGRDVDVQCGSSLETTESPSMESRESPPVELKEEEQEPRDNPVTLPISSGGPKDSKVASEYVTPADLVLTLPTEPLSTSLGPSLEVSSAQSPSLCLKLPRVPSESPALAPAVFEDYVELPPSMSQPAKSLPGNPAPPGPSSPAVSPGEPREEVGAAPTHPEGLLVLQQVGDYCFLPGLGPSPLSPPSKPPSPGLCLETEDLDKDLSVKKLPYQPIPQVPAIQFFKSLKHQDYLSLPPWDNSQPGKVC
Experimental: H9c2 myocardial cells were separated into three groups. The normoxic control group (negative EPOR-BcR receptor) was cultured in a normoxic (20% O2) culture medium. Hypoxic group (positive EPOR-BcR receptor) was cultured in a different time interval (1-4 hr) hypoxic culture condition (5% CO2 and 2% O2) and blocking test (specific binding assay) in the hypoxic condition. […] The cells for triplicate were placed inside confocal plates (Costar) at a density of 1 × 10^5 per well, then treated with almost 250 pmol of ^99mTc-DOTA-(Lys-Dabcyl^6,Phe^7)-ARA-290 subject to 0.025 MBq at 37 °C. Incubation was disrupted with 1 ml of chilled PBS. Afterward, the cells were separated by […] to measure the cell-bound level of ^99mTc-DOTA-(Lys-Dabcyl^6,Phe^7)-ARA-290 by a scintillator. EPOR-BcR receptor blocking was done by using 50-fold extra of the unlabeled peptide in 30 min before the injection of the labeled peptide.

[4] = in vivo
Experimental: To study ischemia-induced myocardial injuries, male Wistar rats weighing 200~250 gr were sorted into three groups of four (n=4): (1) normal group, (2) Ischemic group, and (3) sham group. The rats were anesthetized by intraperitoneal (IP) administration of 3 % pentobarbital sodium (60 mg/kg). Positive pressure mechanical ventilation was made by a Shinano respirator (SN-480–4) and an open-heart operation was done at the level of the left 4th–5th ribs. The rats received intramuscular injections of penicillin sodium (0.8 mg/g) to prevent infection. Myocardial ischemia was induced by a slipknot (4–0 silk suture) around the LAD about 2–3 mm near its origin. After 30-min ischemia, the slipknot was loosened to restore normal circulation for reperfusion ([28]). […] In the same group, heart surgery was performed without LAD artery occlusion.
The biodistribution of radiopeptide among tissues was measured by sacrifice of rats for each elected interval (30, 60, 180, and 360 min) post-injection. Various tissues, including heart, bone, kidneys, muscle, salivary glands, spleen, and intestines, were removed immediately and rinsed with saline solution to clean their residual blood. Moreover, blood samples for monitoring radioactivity were taken from the heart by a heparin-impregnated syringe after sacrificing. The percentage of injected activity per gram (%ID/g) for different organs was measured by dividing the activity of each organ per decayed total injected activity and mass of each organ. Moreover, in ischemic rats, 100 μg unlabeled peptide was co-injected with radiolabeled peptide to analyze the in vivo blocking test.

[5] = test system: cardiac ischemic region; assay: Planar SPECT scintigraphy in ischemic and normal rats; format: in vivo, rat; conditions: 200 MBq
Experimental: 30 and 90 min post-injection of ^99mTc-DOTA-(Lys-Dabcyl^6,Phe^7)-ARA-290 (200 MBq) into ischemic and normal rats, planar images were captured by a dual-head SPECT system (E.cam, Siemens, Germany) that was arranged with low energy high-resolution collimators, a 128*128 matrix size, and a 20% energy window set at 140 keV ([29]).

[6] = male, Wistar, rat, blood, iv, 20 MBq, total radioactivity
[7] = male, Wistar, rat, bone, iv, 20 MBq, total radioactivity
[8] = male, Wistar, rat, heart, iv, 20 MBq, total radioactivity
[9] = male, Wistar, rat, intestines, iv, 20 MBq, total radioactivity
[10] = male, Wistar, rat, ischemic heart / lung, iv, 20 MBq, total radioactivity
[11] = male, Wistar, rat, ischemic heart, iv, 20 MBq, total radioactivity
[12] = male, Wistar, rat, kidneys, iv, 20 MBq, total radioactivity
[13] = male, Wistar, rat, liver, iv, 20 MBq, total radioactivity
[14] = male, Wistar, rat, lung, iv, 20 MBq, total radioactivity
[15] = male, Wistar, rat, muscle, iv, 20 MBq, total radioactivity
[16] = male, Wistar, rat, salivary gland and thyroid, iv, 20 MBq, total radioactivity
[17] = male, Wistar, rat, spleen, iv, 20 MBq, total radioactivity
[18] = male, Wistar, rat, stomach, iv, 20 MBq, total radioactivity

## CC(C)C[C@H](NC(=O)[C@H](Cc1ccccc1)NC(=O)[C@H](CCCCNC(=O)c1ccc(/N=N/c2ccc(N(C)C)cc2)cc1)NC(=O)[C@H](CCC(=O)O)NC(=O)[C@H](CC(C)C)NC(=O)[C@H](CCC(N)=O)NC(=O)[C@H](CCC(=O)O)NC(=O)[C@H](CCC(=O)O)NC(=O)CN1CCN(CC(=O)O)CCN(CC(=O)O)CCN(CC(=O)O)CC1)C(=O)N[C@@H](CC(N)=O)C(=O)N[C@@H](CO)C(=O)N[C@@H](CO)C(=O)O [99mTc-DOTA-(Lys-Dabcyl6,Phe7)-ARA-290, metal not drawn] ({DOTA}-EEQLEK(X1)FLNSS-OH; C-terminus assumed)
[1]
  saline stability of radiopeptide (radiochemical purity remaining): 95%
[2]
  remaining at 4 h: 94%
  remaining at 6 h: 93%
[3]; hypoxia 2% O2 vs normoxia 20% O2, 1 hr
  binding to hypoxic cells relative to normoxic cells: 3 fold
[3]; hypoxia 2% O2 vs normoxia 20% O2, 4 hr
  binding to hypoxic cells relative to normoxic cells: ~5 fold
[3]; hypoxic H9c2 cells, 50 mol excess of unlabeled peptide 30 min before radiopeptide
  binding to hypoxic cells in blocking test: the same result was obtained for the normoxic cells
[3]; normoxic 20% O2, H9c2 cells
  binding affinity to H9c2 cells under normoxic situations: very low
[4]; 60 min p.i., block with 100 μg unlabeled peptide, ischemic rats
  Isch heart/Th ratio: 1.04
[4]; 180 min p.i., ischemic rats
  Isch heart/Lung ratio: 2.61
  Isch heart/Th ratio: 4.68
[4]; 360 min p.i., ischemic rats
  Isch heart/Th ratio: 6.01
[4]; [6]
  tissue uptake at 0.5 h: 1.52 ± 0.29 %ID/g
  tissue uptake at 1 h: 0.96 ± 0.16 %ID/g
  tissue uptake at 3 h: 0.44 ± 0.28 %ID/g
  tissue uptake at 6 h: 0.12 ± 0.87 %ID/g
[4]; [7]
  tissue uptake at 0.5 h: 0.75 ± 0.41 %ID/g
  tissue uptake at 1 h: 0.53 ± 0.21 %ID/g
  tissue uptake at 3 h: 0.32 ± 0.21 %ID/g
  tissue uptake at 6 h: 0.16 ± 0.29 %ID/g
[4]; [8]
  tissue uptake at 0.5 h: 0.62 ± 0.15 %ID/g
  tissue uptake at 1 h: 0.31 ± 0.18 %ID/g
  tissue uptake at 3 h: 0.21 ± 0.32 %ID/g
  tissue uptake at 6 h: 0.14 ± 0.23 %ID/g
[4]; [9]
  tissue uptake at 0.5 h: 1.73 ± 0.1 %ID/g
  tissue uptake at 1 h: 3.22 ± 0.78 %ID/g
  tissue uptake at 3 h: 2.89 ± 0.08 %ID/g
  tissue uptake at 6 h: 2.35 ± 0.25 %ID/g
[4]; [10]
  tissue to tissue ratio at 0.5 h: 3.65
  tissue to tissue ratio at 1 h: 4.31
  tissue to tissue ratio at 6 h: 3.37
[4]; [11]
  tissue uptake at 0.5 h: 3.44 ± 0.32 %ID/g
  tissue uptake at 1 h: 3.28 ± 0.52 %ID/g
  tissue uptake at 3 h: 1.36 ± 0.44 %ID/g
  tissue uptake at 6 h: 1.08 ± 0.94 %ID/g
[4]; [12]
  tissue uptake at 0.5 h: 10.6 ± 0.48 %ID/g
  tissue uptake at 1 h: 14.29 ± 0.01 %ID/g
  tissue uptake at 3 h: 8.58 ± 0.1 %ID/g
  tissue uptake at 6 h: 4.06 ± 0.43 %ID/g
[4]; [13]
  tissue uptake at 0.5 h: 3.55 ± 0.21 %ID/g
  tissue uptake at 1 h: 4.28 ± 0.15 %ID/g
  tissue uptake at 3 h: 3.49 ± 0.09 %ID/g
  tissue uptake at 6 h: 2.08 ± 0.28 %ID/g
[4]; [14]
  tissue uptake at 0.5 h: 0.94 ± 0.58 %ID/g
  tissue uptake at 1 h: 0.76 ± 0.77 %ID/g
  tissue uptake at 3 h: 0.52 ± 0.19 %ID/g
  tissue uptake at 6 h: 0.32 ± 0.22 %ID/g
[4]; [15]
  tissue uptake at 0.5 h: 0.53 ± 0.42 %ID/g
  tissue uptake at 1 h: 0.42 ± 0.84 %ID/g
  tissue uptake at 3 h: 0.25 ± 0.87 %ID/g
  tissue uptake at 6 h: 0.17 ± 0.31 %ID/g
[4]; [16]
  tissue uptake at 0.5 h: 0.79 ± 0.41 %ID/g
  tissue uptake at 1 h: 0.62 ± 0.15 %ID/g
  tissue uptake at 3 h: 0.29 ± 0.29 %ID/g
  tissue uptake at 6 h: 0.18 ± 0.81 %ID/g
[4]; [17]
  tissue uptake at 0.5 h: 2.56 ± 0.21 %ID/g
  tissue uptake at 1 h: 2.31 ± 0.12 %ID/g
  tissue uptake at 3 h: 1.16 ± 0.22 %ID/g
  tissue uptake at 6 h: 0.44 ± 0.29 %ID/g
[4]; [18]
  tissue uptake at 0.5 h: 0.88 ± 0.44 %ID/g
  tissue uptake at 1 h: 0.71 ± 0.31 %ID/g
  tissue uptake at 3 h: 0.54 ± 0.28 %ID/g
  tissue uptake at 6 h: 0.32 ± 0.19 %ID/g
[5]; cardiac ischemic rats, planar images at 30 and 90 min post-injection
  scintigraphy: ischemic region uptake: considerable ischemic region uptake
[5]; normal rat, 30 min post-injection
  scintigraphy: cardiac accumulation: not detectable
